Patent publication US20130344073

Assays:
[1] = molecular target: ST-pro-factor D-His, P00746
ST-pro-factor D-His = ST-pro-factor D-His (UniProt P00746)
pro-factor D-His = pro-factor D-His (UniProt P00746)
[2] = molecular target: purified plasma factor B, P00751
purified plasma factor B, P00751, sequence (P00751 26-764): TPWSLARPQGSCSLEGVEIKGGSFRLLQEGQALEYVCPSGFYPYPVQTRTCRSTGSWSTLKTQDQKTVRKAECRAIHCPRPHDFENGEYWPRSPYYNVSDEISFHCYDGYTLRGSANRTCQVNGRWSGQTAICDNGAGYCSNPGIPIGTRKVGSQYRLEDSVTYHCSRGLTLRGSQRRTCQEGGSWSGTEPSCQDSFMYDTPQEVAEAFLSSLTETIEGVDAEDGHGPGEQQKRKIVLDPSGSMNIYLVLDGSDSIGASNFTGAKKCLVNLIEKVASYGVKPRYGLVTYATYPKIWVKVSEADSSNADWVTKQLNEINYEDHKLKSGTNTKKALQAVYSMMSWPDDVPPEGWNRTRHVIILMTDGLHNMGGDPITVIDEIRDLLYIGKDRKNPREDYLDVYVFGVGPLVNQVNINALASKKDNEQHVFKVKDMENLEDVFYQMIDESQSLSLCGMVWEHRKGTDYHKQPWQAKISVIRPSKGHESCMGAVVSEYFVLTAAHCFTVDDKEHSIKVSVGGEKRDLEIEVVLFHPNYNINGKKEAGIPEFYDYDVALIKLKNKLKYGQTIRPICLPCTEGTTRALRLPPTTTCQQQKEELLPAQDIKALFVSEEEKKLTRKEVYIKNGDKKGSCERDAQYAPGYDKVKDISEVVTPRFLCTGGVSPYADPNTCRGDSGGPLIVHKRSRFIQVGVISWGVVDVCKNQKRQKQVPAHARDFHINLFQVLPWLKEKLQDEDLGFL

ST-pro-factor D-His, P00746, sequence (P00746 whole entry, looked up): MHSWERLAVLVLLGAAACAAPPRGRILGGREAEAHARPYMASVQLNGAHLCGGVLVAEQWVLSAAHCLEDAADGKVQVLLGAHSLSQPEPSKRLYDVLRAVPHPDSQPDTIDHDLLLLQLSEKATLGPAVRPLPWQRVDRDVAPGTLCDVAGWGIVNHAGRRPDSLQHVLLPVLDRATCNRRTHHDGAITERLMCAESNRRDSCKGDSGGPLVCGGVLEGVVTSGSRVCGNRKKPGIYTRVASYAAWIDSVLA
pro-factor D-His, P00746, sequence (P00746 whole entry, looked up): as above
pro-factor D-His, sequence (P00746 other isoform, or with tags, fused parts or gaps): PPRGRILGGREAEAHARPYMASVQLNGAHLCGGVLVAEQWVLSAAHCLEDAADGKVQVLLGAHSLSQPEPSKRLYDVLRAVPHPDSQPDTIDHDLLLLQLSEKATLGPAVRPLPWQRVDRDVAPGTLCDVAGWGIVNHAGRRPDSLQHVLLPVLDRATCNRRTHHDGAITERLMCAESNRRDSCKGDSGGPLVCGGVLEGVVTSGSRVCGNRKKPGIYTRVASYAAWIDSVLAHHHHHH
ST-pro-factor D-His, sequence (P00746 other isoform, or with tags, fused parts or gaps): as above

B1: catalytically-inactive MASP-1 (S646A) (protein)
chain: HTVELNNMFGQIQSPGYPDSYPSDSEVTWNITVPDGFRIKLYFMHFNLESSYLCEYDYVKVETEDQVLATFCGRETTDTEQTPGQEVVLSPGSFMSITFRSDFSNEERFTGFDAHYMAVDVDECKEREDEELSCDHYCHNYIGGYYCSCRFGYILHTDNRTCRVECSDNLFTQRTGVITSPDFPNPYPKSSECLYTIELEEGFMVNLQFEDIFDIEDHPEVPCPYDYIKIKVGPKVLGPFCGEKAPEPISTQSHSVLILFHSDNSGENRGWRLSYRAAGNECPELQPPVHGKIEPSQAKYFFKDQVLVSCDTGYKVLKDNVEMDTFQIECLKDGTWSNKIPTCKIVDCRAPGELEHGLITFSTRNNLTTYKSEIKYSCQEPYYKMLNNNTGIYTCSAQGVWMNKVLGRSLPTCLPVCGLPKFSRKLMARIFNGRPAQKGTTPWIAMLSHLNGQPFCGGSLLGSSWIVTAAHCLHQSLDPEDPTLRDSDLLSPSDFKIILGKHWRLRSDENEQHLGVKHTTLHPQYDPNTFENDVALVELLESPVLNAFVMPICLPEGPQQEGAMVIVSGWGKQFLQRFPETLMEIEIPIVDHSTCQKAYAPLKKKVTRDMICAGEKEGGKDACAGDAGGPMVTLNRERGQWYLVGTVSWGDDCGKKDRYGVYSYIHHNKDWIQRVTGVRN
Question: For B1, which “cleavage of pro-factor D (Western blot)” value [1] is on record?
Answer: The catalytically-inactive full length MASP-3 (S679A; lane 3) and MASP-1 (S646A; lane 3) failed to cleave either substrate

Question: And the “cleavage of pro-factor D (Western blot)” value (pro-factor D-His, P00746)?
Answer: The catalytically-inactive full length MASP-3 (S679A; lane 3) and MASP-1 (S646A; lane 3) failed to cleave either substrate

B2: recombinant MASP-1 (CCP1-CCP2-SP) fragment (enzyme, part only; not given: amino-terminal Strep tag)
chain, part: GNECPELQPPVHGKIEPSQAKYFFKDQVLVSCDTGYKVLKDNVEMDTFQIECLKDGTWSNKIPTCKIVDCRAPGELEHGLITFSTRNNLTTYKSEIKYSCQEPYYKMLNNNTGIYTCSAQGVWMNKVLGRSLPTCLPVCGLPKFSRKLMARIFNGRPAQKGTTPWIAMLSHLNGQPFCGGSLLGSSWIVTAAHCLHQSLDPKDPTLRDSDLLSPSDFKIILGKHWRLRSDENEQHLGVKHTTLHPKYDPNTFENDVALVELLESPVLNAFVMPICLPEGPQQEGAMVIVSGWGKQFLQRFPETLMEIEIPIVDHSTCQKAYAPLKKKVTRDMICAGEKEGGKDACSGDSGGPMVTLNRERGQWYLVGTVSWGDDCGKKDRYGVYSYIHHNKDWIQRVTGVRNHHHHHH
Question: With B2 as the protein, how does the “cleavage of pro-factor D (Western blot)” value (ST-pro-factor D-His) read?
Answer: only full length MASP-3 (lane 2) and the MASP-1 CCP1-CCP2-SP) fragment (lane 5) cleaved ST-pro-factor D-His6

Question: What about the “cleavage of pro-factor D (Western blot)” value (pro-factor D-His) of the same protein?
Answer: Identical results were obtained with the pro-factor D-His6 polypeptide (not shown)

B3: human MASP-3 (protein)
chain: HTVELNNMFGQIQSPGYPDSYPSDSEVTWNITVPDGFRIKLYFMHFNLESSYLCEYDYVKVETEDQVLATFCGRETTDTEQTPGQEVVLSPGSFMSITFRSDFSNEERFTGFDAHYMAVDVDECKEREDEELSCDHYCHNYIGGYYCSCRFGYILHTDNRTCRVECSDNLFTQRTGVITSPDFPNPYPKSSECLYTIELEEGFMVNLQFEDIFDIEDHPEVPCPYDYIKIKVGPKVLGPFCGEKAPEPISTQSHSVLILFHSDNSGENRGWRLSYRAAGNECPELQPPVHGKIEPSQAKYFFKDQVLVSCDTGYKVLKDNVEMDTFQIECLKDGTWSNKIPTCKIVDCRAPGELEHGLITFSTRNNLTTYKSEIKYSCQEPYYKMLNNNTGIYTCSAQGVWMNKVLGRSLPTCLPECGQPSRSLPSLVKRIIGGRNAEPGLFPWQALIVVEDTSRVPNDKWFGSGALLSASWILTAAHVLRSQRRDTTVIPVSKEHVTVYLGLHDVRDKSGAVNSSAARVVLHPDFNIQNYNHDIALVQLQEPVPLGPHVMPVCLPRLEPEGPAPHMLGLVAGWGISNPNVTVDEIISSGTRTLSDVLQYVKLPVVPHAECKTSYESRSGNYSVTENMFCAGYYEGGKDTCLGDSGGAFVIFDDLSQRWVVQGLVSWGGPEECGSKQVYGVYTKVSNYVDWVWEQMGLPQSVVEPQVER
Question: Which “cleavage of pro-factor D (Western blot), 80 ng MASP-3, 70 ng substrate, 75 minutes at 37 C” value [1] does the source give for B3 here?
Answer: MASP-3 cleaves approximately 50% of pro-factor D into factor D (lane 1)

Question: And the “factor B cleavage (Coomassie-stained SDS-PAGE), with C3(H2O)” value [2]?
Answer: either MASP-3 or pro-factor D are able to mediate factor B cleavage, as long as C3 is present
